# Assay results published in the supplement of paper PMC10126150.
# ± gives the standard deviation of the averaged measurements.
# Tested on: ATP
# Assay: switch fluorescence ratio, 500 uM ATP over buffer (Cy3 cluster intensity, sum of 5 cycles each) (fold (ratio)); higher = stronger signal-on switching upon ATP binding; sequences stand for … in TCGTCGGCAGCGTCAGATGTGTATAAGAGACAGTTTTTTTTTTTTTTTTTTTTTTTTT…TC
# Conditions: aptamer strand: ATP DNA aptamer (quencher-CACCTGGGGGAGTATTGCGGAGGAAGG + anchor), 100 nM annealed; ATP concentration: 500 uM
# Outline: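 Per cluster, summed Cy3 intensity from the target cycles was divided by that from the buffer cycles to give the fluorescence ratio, then averaged per switch-domain sequence. Clusters outside 100-1000 RFU were excluded. The Cy3-labelled switching-strand clusters, on a modified Illumina MiSeq flow-cell, were annealed to 100 nM quencher-labelled ATP aptamer and imaged in selection buffer, then after 15 min with 500 uM ATP at 22 °C, for five cycles with NaOH stripping and re-annealing between them.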
# 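Also: ATP exposure 15 min at 22 °C before imaging.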
row,Sequence,switch fluorescence ratio
1,GACAGATGGT,1.01 ± 0.019
2,GAAAGCTGAG,1.18 ± 0.033
3,AGGAGTATTT,1 ± 0.024
4,TTTGTCAGAT,0.98 ± 0.013
5,ATTGGAGTAT,0.9776 ± 0.0089
6,TACACGCCTT,1.05 ± 0.015
7,AAAAAAGTTT,1.02 ± 0.033
8,AGGTCTCTTT,0.982 ± 0.021
9,TGCTTTAGGG,0.965 ± 0.029
10,TTTCATTGGT,1 ± 0.027
11,CTGAATCCTA,1.01 ± 0.017
12,TAGTATTTGC,1.14 ± 0.13
13,GGGCTGGTTT,0.981 ± 0.02
14,GGTTATCTTG,1.01 ± 0.019
15,TTGATTTGGT,1 ± 0.011
16,ACACGTCTGG,1.01 ± 0.029
17,TTATTCGTGT,1.01 ± 0.04
18,TTTTTCCAAA,1 ± 0.041
19,CGGAGGGATC,1.12 ± 0.037
20,ATATGAGGTT,0.977 ± 0.023
21,AAGTTTGTGG,0.973 ± 0.047
22,ATAGGAGTCT,1.09 ± 0.016
23,TAAGCGCAGA,1.01 ± 0.03

row,Sequence,switch fluorescence ratio
1,ATTTCGGAGA,0.971 ± 0.011
2,GTTTGATGCG,0.995 ± 0.022
3,CGCGGTATGG,1.04 ± 0.022
4,AGTCTGCCA,0.977 ± 0.015
5,CGCCTTTGTG,1 ± 0.019
6,CGGGCAGAGG,0.993 ± 0.01
7,TCGCGAATGG,1.11 ± 0.02
8,GAAATAATAA,1.01 ± 0.011
9,CCTGTCATCC,1.17 ± 0.023
10,GGACGGGTGC,1.1 ± 0.088
11,TGCTGGACTT,0.987 ± 0.015
12,GGGTACTGGG,1 ± 0.034
13,AGAGGGAAAC,1.14 ± 0.3
14,GGGGTTCACT,1.01 ± 0.029
15,AATGGCAGTG,1 ± 0.048
16,GCGGTATGGG,0.9645 ± 0.0046
17,GATTTAGGTA,0.968 ± 0.027
18,GGGGGGAGGT,1.02 ± 0.065
19,ACTGTAATTT,1.18 ± 0.027
20,AACTGCGCTG,1.01 ± 0.035
21,GGTTGGTATG,0.987 ± 0.027
22,GACTGCTTGG,0.9518 ± 0.0063
23,CGTGCAGCGG,1 ± 0.014

row,Sequence,switch fluorescence ratio
1,CGTTTTTTGT,0.9843 ± 0.002
2,ATAGTCAGGG,0.988 ± 0.036
3,TGGTCTCTTT,1 ± 0.039
4,TTTGACCCTA,1.04 ± 0.019
5,GGAGGGGGAT,1.03 ± 0.043
6,TTATCTGTTT,1.02 ± 0.028
7,ATTTCGAATG,0.9827 ± 0.0076
8,ATACCCAAGC,1.09 ± 0.011
9,CGACGTGGCG,0.981 ± 0.064
10,TTGTAAGTAG,0.979 ± 0.012
11,ATTAATGTTG,1.054 ± 0.0067
12,GCGTGCAGGC,1.03 ± 0.023
13,AAGAAGTTTG,0.9879 ± 0.0049
14,GGGCAATGAG,1.09 ± 0.023
15,TTTGGGGGAA,0.994 ± 0.046
16,ATGCTTATCA,0.9807 ± 0.0051
17,AGGTACTCCG,1.09 ± 0.015
18,TTAATAAAAA,0.985 ± 0.028
19,TACTGGTTCT,0.984 ± 0.064
20,TGGGGGTTTT,1 ± 0.032
21,GAATTCGGAC,1.04 ± 0.016
22,TGGGGCCTTA,0.952 ± 0.018
23,GGGGTATGCT,1.03 ± 0.032

row,Sequence,switch fluorescence ratio
1,TGGGTGAATT,0.98 ± 0.017
2,GATTAAAGTT,1.02 ± 0.033
3,GGGAAGTTTT,0.978 ± 0.027
4,TTTGGGGGG,1.05 ± 0.046
5,TGAGTCACCT,1.16 ± 0.037
6,GCTTCTGGTT,0.988 ± 0.023
7,TTATAGGGAG,0.97261 ± 0.00039
8,TTTGGTGGGA,0.972 ± 0.026
9,ATTCTGGGGA,0.988 ± 0.026
10,GAGCCCGCAG,1.6 ± 0.038
11,AAGTCGGCTG,0.9757 ± 0.002
12,AGAAGTGGTC,1.01 ± 0.031
13,TAAACACAGG,1.16 ± 0.044
14,GGTTGTTGAG,0.987 ± 0.052
15,ATGGTTTCGA,0.982 ± 0.04
16,TGGCGGGGAC,1.1 ± 0.17
17,GAGTCAGTGG,0.984 ± 0.012
18,CTCTTTCTAC,2.05 ± 1.3
19,TTTAGTCCCC,1.06 ± 0.046
20,TTATGCTATG,1.055 ± 0.0034
21,AAAGTGTTCC,1.03 ± 0.017
22,TATTGTTGAC,1.037 ± 0.01
23,CGTGAAAGG,0.9546 ± 0.0042

row,Sequence,switch fluorescence ratio
1,TTATAGCCCA,1.0151 ± 0.00025
2,TATTAGAATA,0.9814 ± 0.006
3,AATGTCCGTC,1.04 ± 0.046
4,ATAAACTAGA,1.01 ± 0.019
5,CTTTAATTCG,1 ± 0.028
6,AACGGTTTTT,0.972 ± 0.036
7,TTTATGTATT,1 ± 0.022
8,TGGGGGGAC,1.01 ± 0.061
9,TATATAAGAA,1.01 ± 0.033
10,GCGAGGGAGT,1.02 ± 0.037
11,CAGACCCCAT,1.06 ± 0.035
12,ATCTCCTGCC,1.475 ± 0.0051
13,ATGGAAAGCA,1.05 ± 0.029
14,CTGAGAATGG,1.02 ± 0.011
15,CAGTTGAGGT,0.998 ± 0.013
16,GTGCGAGAAC,1.01 ± 0.025
17,GGGTTCTATG,1.004 ± 0.0042
18,TGTTTGTAT,0.9851 ± 0.0015
19,TTTGATGAGA,1 ± 0.028
20,TTAAGAAATT,1.01 ± 0.048
21,ATGTAACTAT,1.03 ± 0.021
22,GGGCGCCCCC,1.08 ± 0.14
23,GGTTTCCGT,0.987 ± 0.038

row,Sequence,switch fluorescence ratio
1,GCGTGATAGA,1.04 ± 0.017
2,ATAGTGATAT,1.06 ± 0.11
3,GGGTATTGTG,0.994 ± 0.033
4,GTATGAAGAG,0.995 ± 0.023
5,TTATAAAAGT,0.962 ± 0.011
6,TAAGGTAAAA,1.001 ± 0.0041
7,TTTGTAACAC,1.25 ± 0.36
8,TAGGTCTAGG,1 ± 0.023
9,TTGTTA,0.964 ± 0.044
10,AATTTGGTG,1.026 ± 0.0011
11,GGGGGATATC,0.994 ± 0.06
12,GATGAGGTTC,0.967 ± 0.053
13,GGGTCTGAGT,0.9621 ± 0.009
14,AACTCGGTCT,1.03 ± 0.095
15,TCTGTATCTA,0.993 ± 0.021
16,ATCCCGGGGA,0.962 ± 0.014
17,TATAAAGGTG,1.11 ± 0.14
18,GTTTTCAATT,0.983 ± 0.01
19,GGCTGTAAGT,0.9844 ± 0.0066
20,ATTTTAATCG,0.985 ± 0.03
21,CCTATAATAT,1.05 ± 0.024
22,CCGCACGAGT,3.73 ± 0.63
23,TCGAAGCCTA,1.17 ± 0.02

row,Sequence,switch fluorescence ratio
1,CGGGGGGGGT,1.01 ± 0.031
2,TTGTAGGTAT,0.999 ± 0.069
3,GAGTGGTGTG,0.979 ± 0.035
4,TAGGAGGCTA,0.976 ± 0.035
5,GTAATGCTCA,1.36 ± 0.062
6,CCGGCGGGGC,1 ± 0.013
7,GCAGATAGGG,0.998 ± 0.016
8,TGTTGGGACT,1.17 ± 0.24
9,ATGTTGTCGG,0.987 ± 0.022
10,TAGTTGGGGG,1 ± 0.028
11,ATAGGTCAAC,0.992 ± 0.044
12,TTTAGGTGGT,1.11 ± 0.2
13,TTGGTTCATG,0.998 ± 0.015
14,ACTCATTTAC,1.21 ± 0.096
15,GGGTTGTCGA,0.952 ± 0.011
16,TGAGTATTTA,0.993 ± 0.057
17,GGAACGGGTC,1.02 ± 0.024
18,CGTCCTGGGC,1.0441 ± 0.00044
19,ATGGGGATTT,0.991 ± 0.01
